{
  "source": "the RNAGym collection of RNA variant scans (doi:10.7554/elife.80360)",
  "parents": {"B1": {"name": "Hairpin Ribozyme (parent)", "chain": "GUCCUCUUUCACGUGCGCGUGAAAGAGAGAAGUGAACCAGAGAAACACACGUUGUGGUAUAUUACCUGGUA"}},
  "data": [
    {"variants_of": "B1", "experiment": "self-cleavage, relative activity (ratio to wild type); higher = more cleavage; co-transcriptional", "values": [
      {"variant": "A31C G56A", "self-cleavage": 0.148},
      {"variant": "A31C G68A", "self-cleavage": 0.152},
      {"variant": "A31C G68C", "self-cleavage": 0.135},
      {"variant": "A31C G68U", "self-cleavage": 0.122},
      {"variant": "A31C G69C", "self-cleavage": 0.0986},
      {"variant": "A31C U33A", "self-cleavage": 0.241},
      {"variant": "A31C U52G", "self-cleavage": 0.0727},
      {"variant": "A31C U53A", "self-cleavage": 0.126},
      {"variant": "A31C U55A", "self-cleavage": 0.0627},
      {"variant": "A31C U60G", "self-cleavage": 0.194},
      {"variant": "A31C U62A", "self-cleavage": 0.12},
      {"variant": "A31C U63C", "self-cleavage": 0.23},
      {"variant": "A31C U63G", "self-cleavage": 0.119},
      {"variant": "A31C U70C", "self-cleavage": 0.0987},
      {"variant": "A31G A35C", "self-cleavage": 0.6},
      {"variant": "A31G A41C", "self-cleavage": 1.2},
      {"variant": "A31G A43U", "self-cleavage": 0.11},
      {"variant": "A31G A45G", "self-cleavage": 0.0922},
      {"variant": "A31G A61G", "self-cleavage": 0.118},
      {"variant": "A31G A71C", "self-cleavage": 1.05},
      {"variant": "A31G C38A", "self-cleavage": 0.157},
      {"variant": "A31G C48G", "self-cleavage": 0.1},
      {"variant": "A31G C48U", "self-cleavage": 0.257},
      {"variant": "A31G C65A", "self-cleavage": 0.891},
      {"variant": "A31G C65G", "self-cleavage": 0.17},
      {"variant": "A31G C66A", "self-cleavage": 0.127},
      {"variant": "A31G C66G", "self-cleavage": 0.211},
      {"variant": "A31G G32U", "self-cleavage": 0.121},
      {"variant": "A31G G34C", "self-cleavage": 1.44},
      {"variant": "A31G G34U", "self-cleavage": 1.54},
      {"variant": "A31G G42C", "self-cleavage": 0.278},
      {"variant": "A31G G51A", "self-cleavage": 0.927},
      {"variant": "A31G G56A", "self-cleavage": 0.0841},
      {"variant": "A31G G68A", "self-cleavage": 0.189},
      {"variant": "A31G G68C", "self-cleavage": 0.115},
      {"variant": "A31G U55C", "self-cleavage": 0.28},
      {"variant": "A31G U58A", "self-cleavage": 0.323},
      {"variant": "A31G U58C", "self-cleavage": 0.793},
      {"variant": "A31G U58G", "self-cleavage": 0.404},
      {"variant": "A31G U60A", "self-cleavage": 0.677},
      {"variant": "A31G U60G", "self-cleavage": 0.412},
      {"variant": "A31G U62G", "self-cleavage": 0.199},
      {"variant": "A31G U63G", "self-cleavage": 0.135},
      {"variant": "A31G U67A", "self-cleavage": 0.0798},
      {"variant": "A31G U70C", "self-cleavage": 0.751},
      {"variant": "A31G U70G", "self-cleavage": 0.376},
      {"variant": "A31U A36U", "self-cleavage": 0.121},
      {"variant": "A31U A39C", "self-cleavage": 0.0658},
      {"variant": "A31U A39U", "self-cleavage": 0.12},
      {"variant": "A31U A41G", "self-cleavage": 0.0486},
      {"variant": "A31U A43U", "self-cleavage": 0.0597},
      {"variant": "A31U A44G", "self-cleavage": 0.215},
      {"variant": "A31U A47C", "self-cleavage": 0.109},
      {"variant": "A31U A61G", "self-cleavage": 0.159},
      {"variant": "A31U A64C", "self-cleavage": 0.0924},
      {"variant": "A31U C37A", "self-cleavage": 0.0463},
      {"variant": "A31U C38U", "self-cleavage": 0.157},
      {"variant": "A31U C46G", "self-cleavage": 0.212},
      {"variant": "A31U C48G", "self-cleavage": 0.0916},
      {"variant": "A31U C48U", "self-cleavage": 0.109},
      {"variant": "A31U C65G", "self-cleavage": 0.166},
      {"variant": "A31U C65U", "self-cleavage": 0.121},
      {"variant": "A31U G32A", "self-cleavage": 0.102},
      {"variant": "A31U G32C", "self-cleavage": 0.165},
      {"variant": "A31U G34A", "self-cleavage": 0.0803},
      {"variant": "A31U G40C", "self-cleavage": 0.154},
      {"variant": "A31U G40U", "self-cleavage": 0.182},
      {"variant": "A31U G42A", "self-cleavage": 0.0839},
      {"variant": "A31U G51U", "self-cleavage": 0.121},
      {"variant": "A31U G56A", "self-cleavage": 0.0543},
      {"variant": "A31U G56U", "self-cleavage": 0.187},
      {"variant": "A31U G68C", "self-cleavage": 0.175},
      {"variant": "A31U G69C", "self-cleavage": 0.111},
      {"variant": "A31U U33C", "self-cleavage": 0.0766},
      {"variant": "A31U U33G", "self-cleavage": 0.143},
      {"variant": "A31U U52A", "self-cleavage": 0.048},
      {"variant": "A31U U52C", "self-cleavage": 0.116},
      {"variant": "A31U U52G", "self-cleavage": 0.117},
      {"variant": "A31U U53C", "self-cleavage": 0.133},
      {"variant": "A31U U55C", "self-cleavage": 0.0975},
      {"variant": "A31U U58G", "self-cleavage": 0.18},
      {"variant": "A31U U60C", "self-cleavage": 0.103},
      {"variant": "A31U U62A", "self-cleavage": 0.115},
      {"variant": "A31U U63C", "self-cleavage": 0.247},
      {"variant": "A31U U67A", "self-cleavage": 0.1},
      {"variant": "A31U U67G", "self-cleavage": 0.0559},
      {"variant": "A31U U70C", "self-cleavage": 0.0555},
      {"variant": "A31U U70G", "self-cleavage": 0.27},
      {"variant": "G32A A35C", "self-cleavage": 0.177},
      {"variant": "G32A A36C", "self-cleavage": 0.145},
      {"variant": "G32A A36G", "self-cleavage": 0.0788},
      {"variant": "G32A A36U", "self-cleavage": 0.111},
      {"variant": "G32A A39C", "self-cleavage": 0.0881},
      {"variant": "G32A A39G", "self-cleavage": 0.107},
      {"variant": "G32A A41C", "self-cleavage": 0.145},
      {"variant": "G32A A41G", "self-cleavage": 0.183},
      {"variant": "G32A A43U", "self-cleavage": 0.0753},
      {"variant": "G32A A45C", "self-cleavage": 0.277},
      {"variant": "G32A A45U", "self-cleavage": 0.143},
      {"variant": "G32A A59C", "self-cleavage": 0.133},
      {"variant": "G32A A59G", "self-cleavage": 0.189},
      {"variant": "G32A A64G", "self-cleavage": 0.142},
      {"variant": "G32A A71C", "self-cleavage": 0.15},
      {"variant": "G32A A71U", "self-cleavage": 0.155},
      {"variant": "G32A C37A", "self-cleavage": 0.115},
      {"variant": "G32A C37U", "self-cleavage": 0.129},
      {"variant": "G32A C38A", "self-cleavage": 0.115},
      {"variant": "G32A C46A", "self-cleavage": 0.145},
      {"variant": "G32A C48G", "self-cleavage": 0.117},
      {"variant": "G32A C50A", "self-cleavage": 0.168},
      {"variant": "G32A C50G", "self-cleavage": 0.179},
      {"variant": "G32A C66U", "self-cleavage": 0.177},
      {"variant": "G32A G34C", "self-cleavage": 1.23},
      {"variant": "G32A G42A", "self-cleavage": 0.0757},
      {"variant": "G32A G42C", "self-cleavage": 0.124},
      {"variant": "G32A G51C", "self-cleavage": 0.113},
      {"variant": "G32A G51U", "self-cleavage": 0.122},
      {"variant": "G32A G54A", "self-cleavage": 0.156},
      {"variant": "G32A G54U", "self-cleavage": 0.136},
      {"variant": "G32A G56C", "self-cleavage": 0.0365},
      {"variant": "G32A G57A", "self-cleavage": 0.0905},
      {"variant": "G32A G69U", "self-cleavage": 0.161},
      {"variant": "G32A U33G", "self-cleavage": 0.137},
      {"variant": "G32A U52C", "self-cleavage": 0.101},
      {"variant": "G32A U53C", "self-cleavage": 0.243},
      {"variant": "G32A U53G", "self-cleavage": 0.146},
      {"variant": "G32A U55A", "self-cleavage": 0.107},
      {"variant": "G32A U58A", "self-cleavage": 0.0567},
      {"variant": "G32A U58C", "self-cleavage": 0.184},
      {"variant": "G32A U58G", "self-cleavage": 0.16},
      {"variant": "G32A U62A", "self-cleavage": 0.162},
      {"variant": "G32A U62C", "self-cleavage": 0.128},
      {"variant": "G32A U63C", "self-cleavage": 0.0959},
      {"variant": "G32A U70A", "self-cleavage": 0.139},
      {"variant": "G32C A35G", "self-cleavage": 0.146},
      {"variant": "G32C A39U", "self-cleavage": 0.174},
      {"variant": "G32C A41C", "self-cleavage": 0.0995},
      {"variant": "G32C A41U", "self-cleavage": 0.101},
      {"variant": "G32C A43C", "self-cleavage": 0.23},
      {"variant": "G32C A43G", "self-cleavage": 0.0421},
      {"variant": "G32C A43U", "self-cleavage": 0.127},
      {"variant": "G32C A44G", "self-cleavage": 0.137},
      {"variant": "G32C A45U", "self-cleavage": 0.121},
      {"variant": "G32C A47G", "self-cleavage": 0.0562},
      {"variant": "G32C A47U", "self-cleavage": 0.0919},
      {"variant": "G32C A49C", "self-cleavage": 0.0996},
      {"variant": "G32C A59C", "self-cleavage": 0.198},
      {"variant": "G32C A61U", "self-cleavage": 0.0498},
      {"variant": "G32C C37U", "self-cleavage": 0.131},
      {"variant": "G32C C38G", "self-cleavage": 0.0953},
      {"variant": "G32C C38U", "self-cleavage": 0.181},
      {"variant": "G32C C46G", "self-cleavage": 0.0694},
      {"variant": "G32C C48A", "self-cleavage": 0.112},
      {"variant": "G32C C48G", "self-cleavage": 0.121},
      {"variant": "G32C C50A", "self-cleavage": 0.109},
      {"variant": "G32C C50G", "self-cleavage": 0.14},
      {"variant": "G32C C65U", "self-cleavage": 0.0495},
      {"variant": "G32C C66G", "self-cleavage": 0.114},
      {"variant": "G32C G34U", "self-cleavage": 0.163},
      {"variant": "G32C G40A", "self-cleavage": 0.164},
      {"variant": "G32C G51A", "self-cleavage": 0.14},
      {"variant": "G32C G51C", "self-cleavage": 0.0912},
      {"variant": "G32C G57C", "self-cleavage": 0.113},
      {"variant": "G32C G69C", "self-cleavage": 0.115},
      {"variant": "G32C U52C", "self-cleavage": 0.131},
      {"variant": "G32C U53C", "self-cleavage": 0.155},
      {"variant": "G32C U55A", "self-cleavage": 0.176}
    ]}
  ]
}
